Source: US20250339532A1 (FATE THERAPEUTICS, published 2025)

Biological target: CD38 (UniProt P28907 1-300, limits assumed)
Assay: cell-based or functional assay

fold reduction of CD38+ T cell counts in co-cultures with daratumumab against the control condition: ~15 fold
fold reduction of CD38+ pbNK cell counts in co-cultures with daratumumab against the control condition: ~21 fold
B1: daratumumab (antibody, V domains shown)
VH: EVQLLESGGGLVQPGGSLRLSCAVSGFTFNSFAMSWVRQAPGKGLEWVSAISGSGGGTYYADSVKGRFTISRDNSKNTLYLQMNSLRAEDTAVYFCAKDKILWFGEPVFDYWGQGTLVTVSS
VL: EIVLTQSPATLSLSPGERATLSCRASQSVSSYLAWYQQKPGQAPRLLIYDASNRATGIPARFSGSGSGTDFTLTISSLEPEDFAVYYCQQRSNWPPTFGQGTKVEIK
